Target: muscle-specific receptor tyrosine kinase (MuSK), Torpedo orthologue (Torpedo (endogenous in electric tissue))
Assay: cross-linking

percent of total MuSK in the 140-kD cross-link product: < 30%
Substance: 40-kD COOH-terminal fragment of MAGI-1c (Torpedo) (domain or fragment)
